Positions count from the first letter of the chain named. Numbers in names are those of the source. Each block holds one binder with its values, some of them ahead of it.
Legend:
[1] = target: T1, biotinylated hCD16a (Sino Biological Inc., 10389-H27H1-B) (human, UniProt P08637 17-208, biotinylated); experiment: ELISA on biotinylated hCD16a captured on neutravidin; anti-human Fc-HRP detection
T1 construct: Bought reagent, captured on a neutravidin-coated plate; also called human CD16a
Protocol: (§1) Specifically, a Maxisorp plate was coated with 100 ng/well of Neutravidin Biotin-binding Protein (ThermoScientific, 31000) and incubated overnight at 4° C. The following day, the plate was blocked with PBS+1% casein for 2 hours at room temperature. […] Binding to hCD16a was detected using an HRP-conjugated polyclonal goat anti-human Fc antibody (Jackson ImmunoResearch, 109-035-008) (incubation 1 hour at RT, dilution 1/50,000 in PBS+0.1% casein), followed by addition of […] room temperature-equilibrated TMB (SDT-reagents #s TMB). Plates were incubated for 10 minutes prior to addition of 100 μl 0.5N H₂SO₄ and OD450 nm measurement. EC50 values were determined using GraphPad Prism software.

[2] = target: T2, murine CD16-2 (Sino Biological Inc., 50036-M27H-B) (murine, UniProt A0A0B4J1G0 21-203, Probably biotinylated on a vendor tag (suffix -B); not given); experiment: ELISA on murine CD16-2, similar procedure to the hCD16a ELISA
T2 construct: Bought reagent, used in 'a similar experimental procedure' to the hCD16a ELISA; also called mCD16-2
T2 sequence: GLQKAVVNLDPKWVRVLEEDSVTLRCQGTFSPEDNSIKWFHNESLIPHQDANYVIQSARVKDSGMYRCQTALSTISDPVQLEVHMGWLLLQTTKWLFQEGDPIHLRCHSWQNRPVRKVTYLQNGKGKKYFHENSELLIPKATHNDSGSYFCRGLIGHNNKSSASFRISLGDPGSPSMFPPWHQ
Protocol: as §1
Using a similar experimental procedure as described above, the binding affinity for murine CD16-2 (Sino Biological Inc., 50036-M27H-B) was determined.

T1 sequence (P08637 17-208 limits assumed): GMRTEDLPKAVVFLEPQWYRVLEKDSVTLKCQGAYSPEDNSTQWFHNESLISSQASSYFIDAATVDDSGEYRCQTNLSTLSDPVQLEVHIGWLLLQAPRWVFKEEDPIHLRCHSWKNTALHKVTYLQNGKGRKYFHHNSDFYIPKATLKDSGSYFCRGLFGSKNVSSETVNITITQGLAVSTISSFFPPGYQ

- EC50 [1]: 13 nM
- fold increase in affinity over fucosylated Fc-Abdeg [1]: > 30 fold
- EC50 [2]: 11 nM
B1: Fc-Abdeg-POT (other)
chain: DKTHTCPPCPAPELLGGPSVFLFPPKPKDTLYITREPEVTCVVVDVSHEDPEVKFNWYVDGVEVHNAKTKPREEQYNSTYRVVSVLTVLHQDWLNGKEYKCKVSNKALPAPIEKTISKAKGQPREPQVYTLPPSRDELTKNQVSLTCLVKGFYPSDIAVEWESNGQPENNYKTTPPVLDSDGSFFLYSKLTVDKSRWQQGNVFSCSVMHEALKFHYTQKSLSLSPGK
modifications: afucosylated N-linked glycan (afucosylated form of Fc-Abdeg)
notes: also called afucosylated form of Fc-Abdeg; afucosylated variant

- EC50 [1]: 6 nM
B2: Fc-Abdeg-S239D/I332E (other)
chain: B1 chain with S19D, I112E
notes: Fc-Abdeg variant

Reference: US20150218239A1 (ARGENX, published 2015)
